The source of these data is article PMC5890176.

The test system of series [1] is SpnHU (HU, histone-like protein) (Streptococcus pneumoniae R6). Nature of the series: EMSA (agarose). The note with it: 2 nM DNA, 10 mM Tris-HCl pH 8.0, 50 mM KCl, 0.05% Brij 58, 0.01 mg/ml BSA, 5% glycerol, 0.01 mM EDTA, 0.01 mM DTT, room temperature 20 min, 0.5% agarose in TBE. (In EMSA bound probe runs differently from free probe, usually more slowly.)
Series [2] concerns the target HU of Streptococcus pneumoniae (SpnHU) (Streptococcus pneumoniae R6). As to the kind of experiment: cross-linking; 0.1% glutaraldehyde, room temperature, 30 min, 5 mM Tris-HCl pH 8.0, 25 mM KCl, 25% glycerol, 0.25 mM EDTA, 0.25 mM DTT; SDS-PAGE (15%), Coomassie; all tested concentrations.

As for pBR322 nicked (Nt.BstNBI), the binding signal in series [1] (SpnHU concentration required for shift (16-fold more than supercoiled), nicked with Nt.BstNBI) turned out to be 3.2 µM.
pBR322 linear (PstI): in series [1] (SpnHU concentration required for shift (8-fold more than supercoiled)), the binding signal is 1.6 µM.
Take “HU of Streptococcus pneumoniae (SpnHU) (natural protein)”: the stoichiometry N (in general, a count of units in the complex or per binding partner) in series [2] came out at 2.
Turning to pBR322 supercoiled, in series [1] (SpnHU concentration at which shift seen), the binding signal turned out to be 0.2 µM.
